Assay results: publication PMC3640046, “Structural Insights into a Wildtype Domain of the Oncoprotein E6 and Its Interaction with a PDZ Domain” (PLoS ONE, 2013)
Like-named read-outs stand apart in the source and are kept apart here. Residues, ends and D or L forms follow the SMILES beside them. No end group written: not given here.

Columns and labels:
hDlgPDZ2 [1] = target: T1, hDlgPDZ2 (Homo sapiens, UniProt Q12959); experiment: Surface plasmon resonance (SPR) of hDlgPDZ2 with E6-derived peptides; type: binding; settings: for kon: read-out: ka
T1 construct: host or cells: E. coli BL21 (DE3)
Experimental: Figure 5 51Z2 derived E6CT6 peptide versus E6CT11 peptide binding to hDlgPDZ2. SPR data. A E6CT6, B E6CT11. Sensorgrams of E6CT6 and E6CT11 binding injected in triplicate (black lines) are shown overlaid with the best fit derived from a 1∶1 interaction model including a mass transport term (orange lines). Peptide concentrations of 3.125, 6.25, 12.5, 25, 50, 100 and 200 µM are shown. The binding parameters were obtained by kinetic analysis of association and dissociation phases (left panels) or by steady state analysis (right panels) utilizing signals of plateaus depicted in the corresponding left panel.
A detailed description of methods is provided in Text S1. Briefly, recombinant proteins were generated in E. coli BL21 (DE3). Cells were disrupted and protein solubility in cell-lysates was assessed. Soluble proteins were FPLC-purified and initially characterized by CD spectroscopy, dynamic light scattering, gel filtration chromatography and NMR spectroscopy. The affinity of E6-derived peptides to hDlgPDZ2 was elucidated utilizing Surface Plasmon Resonance. hDlgPDZ2 was generated by bacterial expression and FPLC purification. The generation of the labeled E6CT11 peptide was performed as previously described. The purified, monomeric 51Z2 and the purified, monomeric hDlgPDZ2 in complex with purified E6CT11 were subsequently structurally characterized by standard solution state NMR techniques.
[1H-‐15N]-‐HSQC-‐spectra

[2] = type: physicochemical; settings: N-terminal His6-tag, E. coli BL21(DE3), 20 °C overnight expression with 10 µM Zn2+; cell extract in lysis buffer pH 7.3; centrifugation 10,000 x g, 4 °C, 30 min; Coomassie stained SDS-PAGE
Experimental: Assessment of solubility of amino-terminally His6-tagged, recombinant E6 constructs derived from the high-risk types 16, 18, 26, 31, 45, 51, 59 and 97 as well as for the non-tumorigenic cutaneous type 1a was performed after bacterial expression in presence of 10 µM of Zn^2+ as solubility of E6 constructs is dependent on low µM concentrations of zinc. None of the wild-type sequence full-length E6 constructs nor their respective N-terminal zinc-binding domain (ZBD) turned out to be soluble (Table S1). […] The soluble constructs are denoted as E6Z2 (e.g. 51Z2 stands for the second, i.e. C-terminal, ZBD of HPV 51 E6). […]

hDlg = settings: in vitro degradation assay; cited from earlier work
From the text: One PDZ domain containing protein targeted by E6 for degradation in vivo is the multi-domain protein hDlg (human Dlg/hDlg1/SAP-97). […] Human Dlg is part of the Scribble polarity complex that controls basolateral polarity and it is required for adherens junction formation and differentiation of epithelial cells. Human Dlg is expressed in human keratinocytes and localizes to nuclear, cytoplasmic, membrane-associate ...

hDlgPDZ2 [3] = target: T1, hDlgPDZ2; settings: cited from earlier work
From the text: 51Z2 contains a carboxy-terminal PDZ-BM and the full-length protein causes the degradation of hDlg in vitro [32].

[4] = target: T2, second PDZ domain of human Dlg (hDlg/hDlg1/SAP-97) (human, UniProt Q12959 318-406, 15N labelled in the titrations with the peptides); experiment: NMR titration; [1H,15N]-HSQC of 100 µM 15N labeled 51Z2 without or with 3 fold excess of unlabeled hDlgPDZ2; slow exchange on the NMR time scale; settings: both partners purified
T2 construct: also called hDlgPDZ2; PDZ domain 2 of hDlg; source: bacterial expression, FPLC purification

[5] = target: T2, second PDZ domain of human Dlg …; experiment: SPR; peptides injected in triplicate at 3.125, 6.25, 12.5, 25, 50, 100 and 200 µM; kinetic analysis (1:1 interaction model with a mass transport term) and steady state analysis; settings: both partners purified
[6] = target: T3, second PDZ domain of human Dlg (hDlg/hDlg1/SAP-97) (human, UniProt Q12959 318-406, 15N labelled in the titrations with the peptides); experiment: SPR; kinetic analysis
T3 chain: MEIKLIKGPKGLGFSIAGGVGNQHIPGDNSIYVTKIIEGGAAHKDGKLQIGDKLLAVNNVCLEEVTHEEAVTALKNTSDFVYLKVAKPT

[7] = kinetic analysis, 1:1 interaction model including mass transport term, 25 °C, pH 7.4
[8] = kinetic analysis, 1:1 interaction model including mass transport term, Biacore 2000, 25 °C, His6-tagged hDlgPDZ2 on NTA chip, peptide 3.125-200 µM, 150 mM NaCl, 10 mM HEPES, 3 mM EDTA, 0.005% polysorbate 20, pH 7.4, injected in triplicate, read-out: KD (kinetic analysis)

## CC(=O)N[C@@H](CCCNC(=N)N)C(=O)N[C@@H](CC(N)=O)C(=O)N[C@@H](CCC(=O)O)C(=O)N[C@H](C(=O)N[C@@H](CCC(N)=O)C(=O)N[C@H](C(=O)O)C(C)C)[C@@H](C)O [E6CT6, Ac-RNETQV] (Ac-RNETQV-OH)
hDlgPDZ2 [1]; [7]
  kon: 54000 M⁻¹ s⁻¹
hDlgPDZ2 [1]; [8]
  Kd: 28.42 ± 0.05 µM

## CC(=O)N[C@@H](CCC(N)=O)C(=O)N[C@@H](CCCNC(=N)N)C(=O)N[C@H](C(=O)N[C@@H](CCCNC(=N)N)C(=O)N[C@@H](CCC(N)=O)C(=O)N[C@@H](CCCNC(=N)N)C(=O)N[C@@H](CC(N)=O)C(=O)N[C@@H](CCC(=O)O)C(=O)N[C@H](C(=O)N[C@@H](CCC(N)=O)C(=O)N[C@H](C(=O)O)C(C)C)[C@@H](C)O)[C@@H](C)O [E6CT11, Ac-QRTRQRNETQV] (Ac-QRTRQRNETQV-OH)
hDlgPDZ2 [1]; SPR, 25 °C, pH 7.4, read-out: Kd
  Kd: < 10 µM
hDlgPDZ2 [1]; [7]
  kon: 104000 M⁻¹ s⁻¹
hDlgPDZ2 [1]; [8]
  Kd: 9.79 ± 0.03 µM
hDlgPDZ2 [1]; steady state analysis utilizing signals of plateaus, Biacore 2000, 25 °C, His6-tagged hDlgPDZ2 on NTA chip, peptide 3.125-200 µM, 150 mM NaCl, 10 mM HEPES, 3 mM EDTA, 0.005% polysorbate 20, pH 7.4, injected in triplicate, read-out: KD (steady state analysis)
  Kd: 9.63 ± 0.02 µM

## 18 E6FL: full-length HPV 18 E6, His6-tagged
[2]
  solubility of recombinant E6 construct: Insoluble

## HPV 18 E6: E6 oncoprotein of high-risk HPV 18
hDlg
  E6 dependent reduction of hDlg levels: reduction of hDlg levels
hDlgPDZ2 [3]
  interaction with hDlgPDZ2: interact with hDlgPDZ2

B1: 45 E6FL: full-length HPV 45 E6, His6-tagged (protein, UniProt P21735 1-158, looked up)
chain: MARFDDPKQRPYKLPDLCTELNTSLQDVSIACVYCKATLERTEVYQFAFKDLCIVYRDCIAYAACHKCIDFYSRIRELRYYSNSVYGETLEKITNTELYNLLIRCLRCQKPLNPAEKRRHLKDKRRFHSIAGQYRGQCNTCCDQARQERLRRRRETQV
modifications: full-length His6 tag
notes: full-length HPV 45 E6, His6-tagged
[2]
  solubility of recombinant E6 construct: Insoluble

B2: second (C-terminal) zinc-binding domain of HPV 51 E6 (domain or fragment)
chain: GSHMSRSVYGTTLEAITKKSLYDLSIRCHRCQRPLGPEEKQKLVDEKKRFHEIAGRWTGQCANCWQRTRQRNETQV
modifications: 15N labelled in the titration with hDlgPDZ2; binds one zinc ion
notes: source: E. coli BL21 (DE3), FPLC-purified
[4]
  binding result: binds

B3: E6CT11, 11mer peptide representing the complete disordered C-terminus of HPV 51 E6 (Ac-QRTRQRNETQV) (peptide)
peptide: Ac-QRTRQRNETQV
notes: HPV 51 E6 residues 141 to 151; also called E6CT11 peptide
[5]
  Kd: 9.6 µM
  fold change of the association rate against E6CT6: ~2 fold
[6]
  koff: 1.01 s⁻¹

B4: 31 (co) E6FL: full-length HPV 31 E6, His6-tagged (protein, UniProt P17386 1-149, looked up)
chain: MFKNPAERPRKLHELSSALEIPYDELRLNCVYCKGQLTETEVLDFAFTDLTIVYRDDTPHGVCTKCLRFYSKVSEFRWYRYSVYGTTLEKLTNKGICDLLIRCITCQRPLCPEEKQRHLDKKKRFHNIGGRWTGRCIACWRRPRTETQV
modifications: full-length His6 tag
notes: full-length HPV 31 E6, His6-tagged
[2]
  solubility of recombinant E6 construct: Insoluble

B5: 16 (co) E6FL: full-length HPV 16 E6, His6-tagged (protein, UniProt P03126 1-158, looked up)
chain: MHQKRTAMFQDPQERPRKLPQLCTELQTTIHDIILECVYCKQQLLRREVYDFAFRDLCIVYRDGNPYAVCDKCLKFYSKISEYRHYCYSLYGTTLEQQYNKPLCDLLIRCINCQKPLCPEEKQRHLDKKQRFHNIRGRWTGRCMSCCRSSRTRRETQL
modifications: full-length His6 tag
notes: full-length HPV 16 E6, His6-tagged
[2]
  solubility of recombinant E6 construct: Insoluble

B6: HPV 16 E6: E6 oncoprotein of high-risk HPV 16 (protein, UniProt P03126 1-158, looked up)
Protein E6: B5 chain
hDlg
  E6 dependent reduction of hDlg levels: reduction of hDlg levels
hDlgPDZ2 [3]
  interaction with hDlgPDZ2: interact with hDlgPDZ2

## Ac-RNETQV (also called E6CT6 peptide) [E6CT6, N-terminally truncated 6mer peptide of the HPV 51 E6 C-terminus (Ac-RNETQV)]
[5]
  Kd: 28.3 µM
[6]
  koff: 1.53 s⁻¹
